Test results from patent publication US20030100089A1.

B1: human leukocyte elastase (HLE) (protein)
chain: IVGGRRARPHAWPFMVSLQLRGGHFCGATLIAPNFVMSAAHCVANVNVRAVRVVLGAHNLSRREPTRQVFAVQRIFENGYDPVNLLNDIVILQLNGSATINANVQVAQLPAQGRRLGNGVQCLAMGWGLLGRNRGIASVLQELNVTVVTSLCRRSNVCTLVRGRQAGVCFGDSGSPLVCNGLIHGIASFVRGGCASGLYPDAFAPVAQFVNWIDSIIQ

Tests used:
MMP-7 = biological target: T1, MMP-7; assay: cell-based or functional assay
T1 sequence (P09237 95-267, species assumed, looked up): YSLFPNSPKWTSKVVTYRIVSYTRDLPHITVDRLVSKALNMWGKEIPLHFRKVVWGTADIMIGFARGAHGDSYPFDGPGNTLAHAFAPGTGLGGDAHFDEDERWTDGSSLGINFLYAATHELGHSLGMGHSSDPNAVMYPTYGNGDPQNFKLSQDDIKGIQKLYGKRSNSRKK

Chymotrypsin = assay: cell-based or functional assay
Cathepsin G = biological target: T2, Cathepsin G; assay: cell-based or functional assay
T2 sequence (P08311 21-244, species assumed, looked up): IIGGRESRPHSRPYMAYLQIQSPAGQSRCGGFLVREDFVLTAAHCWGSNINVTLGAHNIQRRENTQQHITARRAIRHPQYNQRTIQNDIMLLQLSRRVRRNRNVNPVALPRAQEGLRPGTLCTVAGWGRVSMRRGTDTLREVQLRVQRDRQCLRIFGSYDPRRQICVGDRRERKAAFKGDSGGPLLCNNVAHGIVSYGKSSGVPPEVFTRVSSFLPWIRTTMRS

Thrombin = assay: cell-based or functional assay
MMP-2 = assay: cell-based or functional assay
Papaine = assay: cell-based or functional assay
[1] = biological target: human leukocyte elastase (HLE) (human) (UniProt P08246); assay: cell-based or functional assay
Cathepsin D = assay: cell-based or functional assay
Plasmin = assay: cell-based or functional assay
Trypsin = assay: cell-based or functional assay
[2] = biological target: porcine pancreatic elastase (PPE) (porcine) (UniProt P00772); assay: cell-based or functional assay
[3] = biological target: p54 protein (glycoprotein of about 54 kDa isolated from shark cartilage, serine protease inhibitor)

UniProt P00772, sequence (P00772 27-266): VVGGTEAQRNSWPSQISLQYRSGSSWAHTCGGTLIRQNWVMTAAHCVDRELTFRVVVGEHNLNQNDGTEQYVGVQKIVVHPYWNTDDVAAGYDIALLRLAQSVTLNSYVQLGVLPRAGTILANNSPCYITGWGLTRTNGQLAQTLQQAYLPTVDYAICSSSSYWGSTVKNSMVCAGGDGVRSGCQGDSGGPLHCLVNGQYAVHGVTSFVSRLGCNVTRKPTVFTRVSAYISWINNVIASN

| Molecule | Activity (% inhibition) (MMP-7) | Activity (% inhibition) (Chymotrypsin) | Activity (% inhibition) (Cathepsin G) | Activity (% inhibition) (Thrombin) | Activity (% inhibition) (MMP-2) | Activity (% inhibition) (Papaine) | Activity (% inhibition) [1] | Activity (% inhibition) (Cathepsin D) | Activity (% inhibition) (Plasmin) | Activity (% inhibition) (Trypsin) | Activity (% inhibition) [2] | elastase assay (fluorescent elastin substrate) [3] |
| --- | --- | --- | --- | --- | --- | --- | --- | --- | --- | --- | --- | --- |
| p54 protein (glycoprotein of about 54 kDa isolated from shark cartilage, serine protease inhibitor) | 0 % inhibition | 53 % inhibition | 0 % inhibition | 0 % inhibition | 0 % inhibition | 8 % inhibition | 42 % inhibition | 0 % inhibition | 49 % inhibition | 30 % inhibition | 84 % inhibition | – |
| Alpha 1-antitrypsin (AAT) | 0 % inhibition | 100 % inhibition | 68 % inhibition | – | – | – | – | 77 % inhibition | 49 % inhibition | 94 % inhibition | 64 % inhibition | – |
| B1 | – | – | – | – | – | – | – | – | – | – | – | The inhibition of elastase by the p54 protein was also validated with a human leukocyte elastase |
